Assay [1] concerns the target MtCNNMΔC_(Δloop) (Methanoculleus thermophilus CNNM, residues 1-322 Δ259-262) (Methanoculleus thermophilus). Nature of the assay: crystal structure.
Assay [2] has as its target MtCNNMΔC R235L (Methanoculleus thermophilus). Nature of the assay: crystal structure.

What is called stoichiometry N is a count of units in the complex or per binding partner. As for “MtCNNMΔC_(Δloop) (Methanoculleus thermophilus CNNM, residues 1-322 Δ259-262) (domain or fragment)”, in assay [1], the stoichiometry N is 2.
In turn, MtCNNMΔC R235L (domain or fragment) showed a stoichiometry N in assay [2] of 2.

The values above are taken from doi:10.1101/2021.02.11.430706.
